Assay results published in article PMC11809661 (2024).

Assays:
[1] = biological target: T1, Protein S (Mus musculus, UniProt Q08761); experiment: ELISA plate-binding
T1 chain: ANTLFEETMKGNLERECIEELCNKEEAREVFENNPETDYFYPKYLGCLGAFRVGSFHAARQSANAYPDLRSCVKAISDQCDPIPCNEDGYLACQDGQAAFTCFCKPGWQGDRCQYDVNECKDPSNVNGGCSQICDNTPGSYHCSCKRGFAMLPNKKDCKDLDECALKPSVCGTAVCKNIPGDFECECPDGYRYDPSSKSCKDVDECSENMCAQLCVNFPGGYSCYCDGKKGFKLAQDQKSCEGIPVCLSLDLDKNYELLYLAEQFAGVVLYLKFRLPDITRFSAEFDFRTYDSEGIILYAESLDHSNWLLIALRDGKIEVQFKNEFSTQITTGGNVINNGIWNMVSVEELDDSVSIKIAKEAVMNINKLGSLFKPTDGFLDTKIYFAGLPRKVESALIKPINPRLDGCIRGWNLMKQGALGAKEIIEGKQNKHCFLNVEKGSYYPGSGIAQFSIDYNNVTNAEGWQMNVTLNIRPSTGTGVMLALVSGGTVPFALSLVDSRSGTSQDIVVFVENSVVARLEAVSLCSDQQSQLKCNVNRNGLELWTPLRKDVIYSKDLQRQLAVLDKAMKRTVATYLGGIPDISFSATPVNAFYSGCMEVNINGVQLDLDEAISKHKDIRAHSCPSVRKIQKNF

[2] = biological target: T2, Protein S (Homo sapiens, UniProt P07225); experiment: ELISA plate-binding
T2 chain: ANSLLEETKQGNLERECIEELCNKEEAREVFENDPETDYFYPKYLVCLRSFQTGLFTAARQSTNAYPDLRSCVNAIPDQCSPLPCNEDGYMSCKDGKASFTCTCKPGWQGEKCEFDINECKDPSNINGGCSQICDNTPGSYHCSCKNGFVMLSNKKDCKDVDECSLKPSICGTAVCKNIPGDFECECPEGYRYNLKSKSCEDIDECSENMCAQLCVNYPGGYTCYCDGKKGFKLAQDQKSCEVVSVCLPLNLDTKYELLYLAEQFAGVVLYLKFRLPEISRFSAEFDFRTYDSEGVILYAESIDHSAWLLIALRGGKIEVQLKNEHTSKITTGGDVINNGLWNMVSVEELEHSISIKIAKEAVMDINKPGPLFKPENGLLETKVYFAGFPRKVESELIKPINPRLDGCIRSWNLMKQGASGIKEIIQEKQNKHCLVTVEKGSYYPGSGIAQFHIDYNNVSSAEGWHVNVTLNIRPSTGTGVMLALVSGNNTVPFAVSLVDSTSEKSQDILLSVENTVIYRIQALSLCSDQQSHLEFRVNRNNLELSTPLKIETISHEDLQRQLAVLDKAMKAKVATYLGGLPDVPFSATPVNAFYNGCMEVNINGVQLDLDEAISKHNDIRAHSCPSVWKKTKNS

Kd [1]: 0.21 nM | Kd [2]: 0.86 nM
B1: C4BPβ 1-119 (protein)
chain: MFFWCACCLMVAWRVSASDAEHCPELPPVDNSIFVAKEVEGQILGTYVCIKGYHLVGKKTLFCNASKEWDNTTTECRLGHCPDPVLVNGEFSSSGPVNVSDKITFMCNDHYILKGSNRS
